Laboratory results from publication PMC12480839, “Selective agonists of KIR and NKG2A to evade missing self response of natural killer cells” (Scientific Reports, 2025).

How the values were obtained:
[1] = molecular target: T1, recombinant KIR2DL2 protein (flow cytometry binding assay) (UniProt P43627); test: flow cytometry on cells; recombinant receptor proteins at 0.1 µM in autoMACS Running Buffer added to 1 × 10^4 K562 cells expressing the membrane-bound scFv, 4 °C, 90 min; detected with APC anti-human IgG Fc antibody; median fluorescence normalised to control K562 cells; settings: one partner purified
T1 construct: KIR2DL2
T1 sequence (P43627 22-245): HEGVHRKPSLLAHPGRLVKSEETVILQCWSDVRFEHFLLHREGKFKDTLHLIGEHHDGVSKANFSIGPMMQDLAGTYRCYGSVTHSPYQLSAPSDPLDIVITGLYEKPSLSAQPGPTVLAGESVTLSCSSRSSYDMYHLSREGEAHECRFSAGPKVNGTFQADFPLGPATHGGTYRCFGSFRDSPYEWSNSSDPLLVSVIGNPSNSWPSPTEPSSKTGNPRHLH

[2] = molecular target: T2, recombinant KIR2DL3 protein (flow cytometry binding assay) (UniProt P43628); test: as above; settings: one partner purified
T2 construct: KIR2DL3; In the functional rows the receptor was whole KIR2DL3*001 expressed on NK-92 cells
T2 sequence (P43628 22-245): as the sequence (P43627 22-245) above, with R16P, E35Q, C148R, I200T, K216E counted along it

B1: membrane-bound KIR2DL2/3 agonist 61 scFv expressed on K562 cells (scFv, V domains shown)
VH: QVQLVQSGAEVKKPGSSVKVSCKASGGTFSSFAISWVRQAPGQGLEWMGGIIPIFGTANYAQKFQGRVTITADESTSTAYMELSSLRSEDTAVYYCARVSGTTGGYYYGMDVWGQGTLVTVSS
VL: AIRMTQSPSSVSASVGDRVTITCRASQGIGNWLAWYQQKPGRAPKLLISTASSLQSGVPSRFSGGGSGRGFTLTISSLQLEDFATYYCQQSYITPWTFGQGTKVEIK
notes: (G4S)3 linker between the two scFv chains; second variable domain of agonist 61; Made with a CD8 signal peptide; firefly luciferase follows across a T2A peptide; also called scFv 61; KIR2DL2/3-specific scFv; source: K562 cells, transduced, on the cell surface; not shown: truncated human CD8 (CD8 hinge), C-terminal, kept
B1: binds [1]; binds [2].
